Measurements as given in patent US20200190193A1 (INHIBRX, published 2020).

Target: human PD-1 (programmed cell death protein-1) (human, UniProt Q15116 25-288)
Assay: flow cytometry on enriched, anti-CD3-activated human T cells; sdAb-Fc titrated 167 nM to 0.00847 nM, anti-human IgG Alexa Fluor 647 detection
Method: For enrichment and activation of human T cells, Peripheral blood mononuclear cells (PBMCs) were isolated from human donor blood using density gradient centrifugation. Blood samples were diluted with PBS/2% FBS (1:2) and 30 mL of diluted blood was layered onto 15 mL of Lymphoprep density gradient medium. After centrifugation, the PBMC layer at the interphase of plasma and Lymphoprep was removed and remaining red blood cells were lysed using red blood cell lysis buffer for 5 minutes at room temperature. Non-T cell populations were labeled with biotinylated anti-lineage marker antibodies against CD14, CD16, CD19, CD20, CD36, CD56, CD123, TCR γ/δ (20 minutes, room temperature) and depleted using magnetic streptavidin particles. The unbound cell supernatant containing the T cell fraction was retained. Enriched human T cells were activated for 3 days by plating them at a density of about 2×10⁶ cells per mL media in tissue culture plates coated with 1 μg/mL mouse anti-human CD3 (OKT3). Activated T cells were washed once in PBS before further use in binding assays.

Chain of human PD-1 (programmed cell death protein-1) (Q15116 25-288 limits assumed): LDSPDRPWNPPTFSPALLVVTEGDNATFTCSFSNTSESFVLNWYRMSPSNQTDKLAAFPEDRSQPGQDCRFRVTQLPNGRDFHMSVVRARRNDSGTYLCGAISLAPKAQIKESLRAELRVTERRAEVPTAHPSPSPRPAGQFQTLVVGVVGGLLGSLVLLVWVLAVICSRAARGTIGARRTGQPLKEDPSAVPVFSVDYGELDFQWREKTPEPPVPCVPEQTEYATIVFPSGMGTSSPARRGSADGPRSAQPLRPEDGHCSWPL

B1: hz18H10v7 PD-1 sdAb-Fc fusion protein (humanized variant of 18H10) (Fc fusion)
chain: EVQLVESGGGEVQPGGSLRLSCAASGSITGANTMGWYRQAPGKQRDLVALIGNYVTHYAESVKGRFTISRDNAKNTVYLQMSSLRAEDTAVYYCYLYTDNLGTSWGQGTLVTVKP
notes: also called humanized 18H10 (hzv7); hzv7; not shown: hinge/linker and Fc of the sdAb-Fc fusion are not specified for the humanized variants
B1: binds.
